From patent US11912794B2, “Modulation of structured polypeptide specificity” (BicycleRD Limited, priority 2011, dated 2024)
Ends that are not written are not given here.

Target: T1, Biotinylated hPK (Homo sapiens, UniProt P03952)
T1 construct: IHPKA, from human plasma; purchased Innovative Research, Novi, MI, USA IHPKA; host or cells: human plasma
Test: Phage selections, abundance of sequences in selection outputs
Type: binding
Details: for Frequency (relative abundance in the total selection outputs): randomised WPAR motif at positions 2, 3, 4 & 5 within the 06-34-03 sequence
Protocol: Glycerol stocks of phage libraries were diluted to OD600=0.1 in 500 ml 2YT/chloramphenicol (30 μg/ml) cultures and phage were produced at 30° C. over night (15-16 hrs). Phage were purified and chemically modified as described in Heinis, et al., Nat Chem Biol 2009, 5 (7), 502-7 Biotinylated hPK (3 μg) (IHPKA, from human plasma, Innovative Research, Novi, MI, USA) was incubated with 50 μl pre-washed magnetic streptavidin beads (Dynal, M-280 from Invitrogen, Paisley, UK) for 10 minutes at RT. […] Blocked beads were then mixed with the blocked chemically modified phage and incubated for 30 minutes on a rotating wheel at RT. Beads were washed 8 times with washing buffer containing 0.1% Tween 20 and twice with washing buffer before incubation with 100 μl of 50 mM glycine, pH 2.2 for 5 minutes. Eluted phage were transferred to 50 μl of 1 M Tris-Cl, pH 8 for neutralization, incubated with 30 ml TG1 cells at OD600=0.4 for 90 minutes at 37° C. and the cells were plated on large 2YT/chloramphenicol plates. One or two additional rounds of panning were performed using the same procedures. In the second round of selection, neutravidin-coated magnetic beads were used to prevent the enrichment of streptavidin-specific peptides. The neutravidin beads were prepared by reacting 0.8 mg neutravidin (Pierce, Rockford, IL, USA) with 0.5 ml tosyl-activated magnetic beads (Dynal, M-280 from Invitrogen, Paisley, UK) according to the supplier's instructions.
The WPAR (SEQ ID NO: 18) motif identified from Example 1 was analysed in the context of the 06-34-03 peptide, in order to identify alternatives or improvements to the WPAR (SEQ ID NO: 18) motif. A library was constructed where positions 1, 6, 7, 8, 9 &10 of 06-34-03 were fixed and positions 2, 3, 4 & 5 were randomised (see ‘Randomisation of peptide domains—Library construction’ in Methods above). Selections against human plasma Kallikrein were performed at a variety of stringencies (see Phage selections' in Methods above). All output sequences were identified and analysed for target binding (see ‘Randomisation of peptide domains—Assay of binding of individual clones’ in Methods above). Table 17 lists each unique sequence, its relative abundance in the selection output (frequency), and a rank number according to target binding strength.

[1] = 2nd stringency from High (1st value of cell)
[2] = 3rd stringency from High (2nd value of cell)
[3] = 4th stringency from High (3rd value of cell)
[4] = 5th stringency from High (4th value of cell)

T1 sequence (P03952 20-638): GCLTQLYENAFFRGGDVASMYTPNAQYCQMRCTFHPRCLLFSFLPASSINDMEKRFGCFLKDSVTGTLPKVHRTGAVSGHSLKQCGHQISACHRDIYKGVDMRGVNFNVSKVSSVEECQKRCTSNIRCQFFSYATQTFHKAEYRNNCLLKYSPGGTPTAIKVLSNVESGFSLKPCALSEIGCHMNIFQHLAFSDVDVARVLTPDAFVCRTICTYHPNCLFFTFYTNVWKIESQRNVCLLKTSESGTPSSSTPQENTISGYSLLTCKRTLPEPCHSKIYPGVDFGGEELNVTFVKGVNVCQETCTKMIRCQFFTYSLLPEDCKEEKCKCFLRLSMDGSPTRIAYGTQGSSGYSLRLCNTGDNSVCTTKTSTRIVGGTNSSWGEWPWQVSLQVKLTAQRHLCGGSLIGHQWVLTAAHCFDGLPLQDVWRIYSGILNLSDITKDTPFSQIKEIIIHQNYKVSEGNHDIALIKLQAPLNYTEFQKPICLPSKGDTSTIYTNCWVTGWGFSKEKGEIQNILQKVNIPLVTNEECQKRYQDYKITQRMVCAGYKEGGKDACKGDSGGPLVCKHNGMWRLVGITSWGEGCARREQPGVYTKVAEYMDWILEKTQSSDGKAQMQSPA

FPFR: phage clone: FPFR at positions 2-5 within the 06-34-03 sequence, TBMB-cyclised (also: TBMB-cyclised within the 06-34-03 context, the cysteines lie outside this motif)
Relative abundance of motif in selection output [1]: 19%
Relative abundance of motif in selection output [2]: 9%
Relative abundance of motif in selection output [3]: 4%
Relative abundance of motif in selection output [4]: 13%
Relative abundance of motif in selection output (stringency High): 7%
Relative abundance of motif in selection output (stringency LOW): 11%

SEQ ID NO: 77 (CSFPYRCTHQDLC; Synthetic sequence Kallikrein binder identified from selections using a randomised WPAR motif at positions 2, 3, 4 & 5 within the 06-34-03 sequence of PCT/EP2012/069898 (SEQ ID NO 58))
Frequency (relative abundance in the total selection outputs): 12

SEQ ID NO: 105 (CSYPWRCTHQDLC; Synthetic sequence Kallikrein binder identified from selections using a randomised WPAR motif at positions 2, 3, 4 & 5 within the 06-34-03 sequence of PCT/EP2012/069898 (SEQ ID NO 58))
Frequency (relative abundance in the total selection outputs): 1

SEQ ID NO: 108 (CSWSYRCTHQDLC; Synthetic sequence Kallikrein binder identified from selections using a randomised WPAR motif at positions 2, 3, 4 & 5 within the 06-34-03 sequence of PCT/EP2012/069898 (SEQ ID NO 58))
Frequency (relative abundance in the total selection outputs): 1

SEQ ID NO: 91 (CSWSARCTHQDLC; Synthetic sequence Kallikrein binder identified from selections using a randomised WPAR motif at positions 2, 3, 4 & 5 within the 06-34-03 sequence of PCT/EP2012/069898 (SEQ ID NO 58))
Frequency (relative abundance in the total selection outputs): 10

SEQ ID NO: 81 (CSHPFRCTHQDLC; Synthetic sequence Kallikrein binder identified from selections using a randomised WPAR motif at positions 2, 3, 4 & 5 within the 06-34-03 sequence of PCT/EP2012/069898 (SEQ ID NO 58))
Frequency (relative abundance in the total selection outputs): 1

SEQ ID NO: 87 (CSFPIRCTHQDLC; Synthetic sequence Kallikrein binder identified from selections using a randomised WPAR motif at positions 2, 3, 4 & 5 within the 06-34-03 sequence of PCT/EP2012/069898 (SEQ ID NO 58))
Frequency (relative abundance in the total selection outputs): 1

WPFR: phage clone: WPFR at positions 2-5 within the 06-34-03 sequence, TBMB-cyclised (also: TBMB-cyclised within the 06-34-03 context, the cysteines lie outside this motif)
Relative abundance of motif in selection output [1]: 3%
Relative abundance of motif in selection output [2]: 0%
Relative abundance of motif in selection output [3]: 0%
Relative abundance of motif in selection output [4]: 6%
Relative abundance of motif in selection output (stringency High): 7%
Relative abundance of motif in selection output (stringency LOW): 4%

SEQ ID NO: 98 (CSYPYRCTHQDLC; Synthetic sequence Kallikrein binder identified from selections using a randomised WPAR motif at positions 2, 3, 4 & 5 within the 06-34-03 sequence of PCT/EP2012/069898 (SEQ ID NO 58))
Frequency (relative abundance in the total selection outputs): 2

SEQ ID NO: 109 (CSFMYKCTHQDLC; Synthetic sequence Kallikrein binder identified from selections using a randomised WPAR motif at positions 2, 3, 4 & 5 within the 06-34-03 sequence of PCT/EP2012/069898 (SEQ ID NO 58))
Frequency (relative abundance in the total selection outputs): 1

SEQ ID NO: 74 (CSWPSRCTHQDLC; Synthetic sequence Kallikrein binder identified from selections using a randomised WPAR motif at positions 2, 3, 4 & 5 within the 06-34-03 sequence of PCT/EP2012/069898 (SEQ ID NO 58))
Frequency (relative abundance in the total selection outputs): 51

SEQ ID NO: 93 (CSYPFRCTHQDLC; Synthetic sequence Kallikrein binder identified from selections using a randomised WPAR motif at positions 2, 3, 4 & 5 within the 06-34-03 sequence of PCT/EP2012/069898 (SEQ ID NO 58))
Frequency (relative abundance in the total selection outputs): 1

SEQ ID NO: 80 (CSHPYRCTHQDLC; Synthetic sequence Kallikrein binder identified from selections using a randomised WPAR motif at positions 2, 3, 4 & 5 within the 06-34-03 sequence of PCT/EP2012/069898 (SEQ ID NO 58))
Frequency (relative abundance in the total selection outputs): 2

WPYR: phage clone: WPYR at positions 2-5 within the 06-34-03 sequence, TBMB-cyclised (also: TBMB-cyclised within the 06-34-03 context, the cysteines lie outside this motif)
Relative abundance of motif in selection output [1]: 3%
Relative abundance of motif in selection output [2]: 0%
Relative abundance of motif in selection output [3]: 4%
Relative abundance of motif in selection output [4]: 0%
Relative abundance of motif in selection output (stringency High): 3%
Relative abundance of motif in selection output (stringency LOW): 0%

SEQ ID NO: 99 (CSWWARCTHQDLC; Synthetic sequence Kallikrein binder identified from selections using a randomised WPAR motif at positions 2, 3, 4 & 5 within the 06-34-03 sequence of PCT/EP2012/069898 (SEQ ID NO 58))
Frequency (relative abundance in the total selection outputs): 1

SEQ ID NO: 114 (CSWQARCTHQDLC; Synthetic sequence Kallikrein binder identified from selections using a randomised WPAR motif at positions 2, 3, 4 & 5 within the 06-34-03 sequence of PCT/EP2012/069898 (SEQ ID NO 58))
Frequency (relative abundance in the total selection outputs): 1

SEQ ID NO: 113 (CSHRRWCTHQDLC; Synthetic sequence Kallikrein binder identified from selections using a randomised WPAR motif at positions 2, 3, 4 & 5 within the 06-34-03 sequence of PCT/EP2012/069898 (SEQ ID NO 58))
Frequency (relative abundance in the total selection outputs): 1

SEQ ID NO: 83 (CRFPFKCTHQDLC; Synthetic sequence Kallikrein binder identified from selections using a randomised WPAR motif at positions 2, 3, 4 & 5 within the 06-34-03 sequence of PCT/EP2012/069898 (SEQ ID NO 58))
Frequency (relative abundance in the total selection outputs): 1

SEQ ID NO: 73 (CSWPARCTHQDLC; Synthetic sequence Kallikrein binder identified from selections using a randomised WPAR motif at positions 2, 3, 4 & 5 within the 06-34-03 sequence of PCT/EP2012/069898 (SEQ ID NO 58))
Frequency (relative abundance in the total selection outputs): 24

SEQ ID NO: 96 (CSWHARCTHQDLC; Synthetic sequence Kallikrein binder identified from selections using a randomised WPAR motif at positions 2, 3, 4 & 5 within the 06-34-03 sequence of PCT/EP2012/069898 (SEQ ID NO 58))
Frequency (relative abundance in the total selection outputs): 1

SEQ ID NO: 95 (CSFPWRCTHQDLC; Synthetic sequence Kallikrein binder identified from selections using a randomised WPAR motif at positions 2, 3, 4 & 5 within the 06-34-03 sequence of PCT/EP2012/069898 (SEQ ID NO 58))
Frequency (relative abundance in the total selection outputs): 1
